Positions count from the first letter of the chain named. Names may count otherwise.
T1: UL31 1-306 (wild type) (HSV-1, UniProt P10215 1-306)
T1 construct: also called WT UL31; UL31 chain of NEC220
T1 sequence: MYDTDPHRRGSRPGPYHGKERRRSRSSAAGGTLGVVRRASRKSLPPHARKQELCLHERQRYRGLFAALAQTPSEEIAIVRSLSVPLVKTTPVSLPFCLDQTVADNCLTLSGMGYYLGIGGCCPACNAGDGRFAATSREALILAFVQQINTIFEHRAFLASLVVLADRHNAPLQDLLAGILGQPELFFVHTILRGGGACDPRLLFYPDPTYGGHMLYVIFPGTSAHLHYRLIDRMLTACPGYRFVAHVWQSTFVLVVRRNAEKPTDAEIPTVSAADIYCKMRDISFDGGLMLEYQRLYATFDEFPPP

T2: UL31 1-306 R229L_(UL31) (HSV-1, UniProt P10215 1-306, R229L)
T2 construct: also called SUP_(UL31); UL31 chain of NEC220-SUP_(UL31)
T2 sequence: T1 sequence with R229L

B1: UL34 1-220 (wild type) (domain or fragment)
chain: MAGLGKPYTGHPGDAFEGLVQRIRLIVPSTLRGGDGEAGPYSPSSLPSRCAFQFHGHDGSDESFPIEYVLRLMNDWAEVPCNPYLRIQNTGVSVLFQGFFHRPHNAPGGAITPERTNVILGSTETTGLSLGDLDTIKGRLGLDARPMMASMWISCFVRMPRVQLAFRFMGPEDAGRTRRILCRAAEQAITRRRRTRRSREAYGAEAGLGVAGTGFRARGD
notes: also called UL34 chain of NEC220; not shown: GST, N-terminal, cleaved
B2: UL34 1-220 D35A_(UL34)/E37A_(UL34) (domain or fragment)
chain: B1 chain with D35A, E37A
notes: also called DN_(UL34); UL34 chain of NEC220-DN_(UL34)/SUP_(UL31); not shown: GST, N-terminal, cleaved
B3: UL34 1-220 K137A_(UL34) (domain or fragment)
chain: B1 chain with K137A
notes: also called UL34 chain of NEC220-K137A_(UL34); not shown: GST, N-terminal, cleaved
B4: UL34 1-220 K137A_(UL34)/R139A_(UL34) (domain or fragment)
chain: B1 chain with K137A, R139A
notes: also called UL34 chain of NEC220-K137A_(UL34)/R139A_(UL34); not shown: GST, N-terminal, cleaved
B5: UL34 1-220 R139A_(UL34) (domain or fragment)
chain: B1 chain with R139A
notes: also called UL34 chain of NEC220-R139A_(UL34); not shown: GST, N-terminal, cleaved
B6: UL34 15-185 D35A_(UL34)/E37A_(UL34) (domain or fragment)
chain: AFEGLVQRIRLIVPSTLRGGAGAAGPYSPSSLPSRCAFQFHGHDGSDESFPIEYVLRLMNDWAEVPCNPYLRIQNTGVSVLFQGFFHRPHNAPGGAITPERTNVILGSTETTGLSLGDLDTIKGRLGLDARPMMASMWISCFVRMPRVQLAFRFMGPEDAGRTRRILCRAA
notes: also called DN_(UL34); UL34 chain of NEC185Δ50-DN_(UL34)/SUP_(UL31); not shown: GST, N-terminal, cleaved
B7: NEC185Δ50-DN_(UL34)/SUP_(UL31) (complex)
chain 1: QELCLHERQRYRGLFAALAQTPSEEIAIVRSLSVPLVKTTPVSLPFCLDQTVADNCLTLSGMGYYLGIGGCCPACNAGDGRFAATSREALILAFVQQINTIFEHRAFLASLVVLADRHNAPLQDLLAGILGQPELFFVHTILRGGGACDPRLLFYPDPTYGGHMLYVIFPGTSAHLHYLLIDRMLTACPGYRFVAHVWQSTFVLVVRRNAEKPTDAEIPTVSAADIYCKMRDISFDGGLMLEYQRLYATFDEFPPP
chain 2: B6 chain
notes: also called NEC-DN_(UL34)/SUP_(UL31) crystallization construct; NEC185Δ50-DN34/SUP31; source: E. coli BL21(DE3) LoBSTr, co-expressed, purified (Ni Sepharose, Glutathione Sepharose, tags cleaved, Talon, Superdex 75)
B8: NEC220 (wild-type HSV-1 nuclear egress complex, UL31 1-306 with UL34 1-220) (complex)
chain 1: T1 sequence
chain 2: B1 chain
B9: NEC220-SUP_(UL31) (complex)
chain 1: T1 sequence with R229L
chain 2: B1 chain
notes: also called NEC-SUP_(UL31)
B10: NEC220-DN_(UL34)/SUP_(UL31) (complex)
chain 1: T1 sequence with R229L
chain 2: B1 chain with D35A, E37A
notes: also called NEC-DN_(UL34)/SUP_(UL31)
B11: UL34 15-185 (domain or fragment)
chain: B6 chain with A21D, A23E
notes: also called UL34 chain of NEC185Δ50-SUP_(UL31); not shown: GST, N-terminal, cleaved
B12: NEC185Δ50-SUP_(UL31) (complex)
chain 1: B7 chain 1
chain 2: B6 chain with A21D, A23E
notes: also called NEC-SUP_(UL31) crystallization construct; source: E. coli BL21(DE3) LoBSTr, co-expressed, purified (Ni Sepharose, Glutathione Sepharose, tags cleaved, Talon, Superdex 75)
B13: UL31 51-306 R229L (SUP_(UL31)Δ50-306) (domain or fragment)
chain: B7 chain 1
notes: also called R229L_(UL31)Δ50-306; UL31 chain of NEC185Δ50-SUP_(UL31)

Legend:
UL31 1-306 (wild type) [1] = target: T1, UL31 1-306 (wild type); experiment: cryo-EM structure; cryoET with sub-tomographic averaging of membrane-bound coats; 1 mg/mL NEC with 400 and 800 nm LUVs (POPC:POPS:POPA = 3:1:1), 30 min on ice; conditions: both partners purified
UL31 1-306 R229L_(UL31) [2] = target: T2, UL31 1-306 R229L_(UL31); experiment: as above; conditions: both partners purified
UL31 1-306 (wild type) [3] = target: T1, UL31 1-306 (wild type); experiment: SEC; co-expressed and co-purified UL31/UL34, tags cleaved, equimolar amounts loaded on Superdex 75 10/300 in 20 mM Na HEPES pH 7.0, 100 mM NaCl, 1 mM TCEP, 4°C; fractions analysed by SDS-PAGE; conditions: both partners purified
UL31 1-306 R229L_(UL31) [4] = target: T2, UL31 1-306 R229L_(UL31); experiment: as above; conditions: both partners purified
[5] = target: B13; experiment: crystal structure; conditions: both partners purified
crystal structure = target: the molecule itself; experiment: crystal structure
[6] = target: the molecule itself; experiment: cryo-EM structure; cryoET with sub-tomographic averaging of membrane-bound coats; 1 mg/mL NEC with 400 and 800 nm LUVs (POPC:POPS:POPA = 3:1:1), 30 min on ice

B1
binding result (UL31 1-306 (wild type) [1]): binds

B2
binding result (UL31 1-306 R229L_(UL31) [2]): binds

B3
binding result (UL31 1-306 (wild type) [3]): binds | binding result (UL31 1-306 R229L_(UL31) [4]): binds

B4
binding result (UL31 1-306 (wild type) [3]): binds | binding result (UL31 1-306 R229L_(UL31) [4]): binds

B5
binding result (UL31 1-306 (wild type) [3]): binds

B6
binding result [5]: binds

B7
binding result (crystal structure): binds

B8
binding result [6]: binds

B9
binding result [6]: binds

B10
binding result [6]: binds

B11
binding result [5]: binds | binding result (crystal structure): binds

B12
stoichiometry N (crystal structure): 6

B13
binding result (crystal structure): binds
